Target: Keap1 Kelch domain (amino acid residues 309 to 624) (human) (UniProt Q14145)
Assay: ITC; MicroCal ITC200, 25 °C, 20 mM Tris‐HCl and 150 mM NaCl; Kelch and synthetic PGAM5 peptides; 19 injections at 2‐min intervals

Sequence of Keap1 Kelch domain (amino acid residues 309 to 624) (human) (Q14145 309-624): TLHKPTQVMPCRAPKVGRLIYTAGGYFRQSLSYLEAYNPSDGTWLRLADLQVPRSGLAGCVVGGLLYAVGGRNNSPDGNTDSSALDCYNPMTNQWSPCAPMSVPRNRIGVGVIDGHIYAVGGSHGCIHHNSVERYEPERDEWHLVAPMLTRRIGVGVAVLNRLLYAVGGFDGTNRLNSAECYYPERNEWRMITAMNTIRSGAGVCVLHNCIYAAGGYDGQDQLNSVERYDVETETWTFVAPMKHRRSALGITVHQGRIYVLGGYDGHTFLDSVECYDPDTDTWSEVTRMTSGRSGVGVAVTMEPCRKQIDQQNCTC

Kd | Substance
37.7 µM | E79A mutant based on the PGAM5 20‐mer peptide
0.107 µM | PGAM5 20‐mer peptide (based on the ESGE motif)
